According to patent US20060058229A1, “Peptides and methods for cell death regulation” (priority 2002, published 2006):

Columns and labels:
XIAP [1] = target: T1, XIAP (Homo sapiens, UniProt P98170); test: In vitro XIAP self-conjugation assay; format: biochemical
T1 construct: Full length xiap was amplified by PCR and subcloned into the EcoRI, ApaI site of this pcDNA3; made in house; host or cells: in vitro transcription-translation system (Promega); UBCH5C from E. coli BL21 (pLysS)
Protocol: IAP-E2 Binding Assay for Measuring Self-Conjugation
^35S-methionine labeled DIAP1 or XIAP was generated in an in vitro transcription-translation system (Promega) from diap1-pET14b and xiap-pcDNA3.1 respectively. For purification of His-UBCD1 and His-UBCH5C, ubcD1-pET14b and ubcH5C-pT7-7 were expressed in BL21 (pLysS) and purfied on a Ni-column according to the manufacturer's protocol (Novagen). ^35S-DIAP1 or ^35S-XIAP was incubated with purified UBCD1 or UBCH5C respectively in the absence or presence of the W-7, H2-9 or H2-9W7 peptides. Following incubation of 15 min in room temperature in 20 mM Tris pH7.6, 2 mM DTr, Ni-NTA Agarose beads (Qiagen) were added for additional 30 minutes. The beads were subsequently washed four times with the Tis/DTT buffer, eluted with Laemli buffer and subjected to 10% SDS-PAGE. ^35S-DIAP1 or ^35S-XIAP was visualized by Phosphorimaging.
^35S-methionine labeled mutant and wild type DIAP1, or wild type XIAP were generated in an in vitro transcription-translation system (Promega) from diap1-pET14b, diap1^21-4S pET14b and xiap pcDNA3.1 plasmids. For purification of His-UBCD1 and His-UBCH5C, ubcD1-pET14b and ubcH5C-pT7-7 were expressed in BL21 (pLysS) and purified on a Ni-column according to the manufacturer's protocol (Novagen). […]

[2] = target: DIAP1 (Drosophila IAP1), wild type, 35S-methionine labeled, in vitro translated from diap1-pET14b (UniProt Q24306)
[3] = target: His-DIAP1 21-4S mutant (RING domain mutant, Cys 406 to Tyr), 35S-methionine labeled, in vitro translated from diap1 21-4S pET14b (UniProt Q24306)
DIAP1 [4] = test: In vitro ubiquitination reaction / self-conjugation of 35S-DIAP1; format: biochemical, Drosophila; settings: 35S-DIAP1 with E1 and ubiquitin
Protocol: (§1) In Vitro Ubiquitination Reaction
^35S-methionine labeled mutant and wild type DIAP1, or wild type XIAP were generated in an in vitro transcription-translation system (Promega) from diap1-pET14b, diap1^21-4S pET14b and xiap pcDNA3.1 plasmids. For purification of His-UBCD1 and His-UBCH5C, ubcD1-pET14b and ubcH5C-pT7-7 were expressed in BL21 (pLysS) and purified on a Ni-column according to the manufacturer's protocol (Novagen). In vitro ubiquitination assays were carried out in a total volume of 12.5 μl and contained: ^35S-methionine labeled wild type or mutant DIAP1 or Wild type XIAP (approximately 10,000 cpm), and 250 ng E1 (made in baculovirus; vector is the kind gift of Dr. Kaznbiro Iwai, University of Osaka, Osaka Japan). […]
In order to determine whether both amino acid consensus sequences described above are essential for IAP degradation; peptides were generated, with amino acid sequences as described in Tables 1, 3 and 5 above, containing one of each amino acid consensus sequence, or both and their ability to stimulate in vitro IAP ubiquitination was assessed (FIG. 13). ^35S-methionine labeled wild type DIAP1 was incubated with 250 ng E1 and ubiquitin, with or without the addition of the RPR wild type protein, or peptides containing the RHG amino acid consensus sequence of the RPR HID or GRIM proteins, and the reaction products were resolved by SDS-PAGE.

XIAP [5] = target: T1, XIAP; test: In vitro ubiquitination reaction of 35S-XIAP; format: biochemical
Protocol: as §1
^35S-methionine labeled mutant and wild type DIAP1, or wild type XIAP were generated in an in vitro transcription-translation system (Promega) from diap1-pET14b, diap1^21-4S pET14b and xiap pcDNA3.1 plasmids. For purification of His-UBCD1 and His-UBCH5C, ubcD1-pET14b and ubcH5C-pT7-7 were expressed in BL21 (pLysS) and purified on a Ni-column according to the manufacturer's protocol (Novagen). In vitro ubiquitination assays were carried out in a total volume of 12.5 μl and contained: ^35S-methionine labeled wild type or mutant DIAP1 or Wild type XIAP (approximately 10,000 cpm), and 250 ng E1 (made in baculovirus; vector is the kind gift of Dr. Kaznbiro Iwai, University of Osaka, Osaka Japan). Unless otherwise stated, 1.2 μg His-UBCD1 or His-UBCH5C was used in each reaction Reaction mire contained also 40 mM Tris-HCl, pH 7.6, 5 mM MgCl2, 1 mM DTT, 5 μg ubiquitin, 100 ng Ubiquitin-aldehyde, 2 mM ATPγS [Adenosine 5′-O-(3-thiotriphosphate)]. Reactions were incubated for 50 min at 37° C., and resolved, following addition of a sample buffer on SDS-PAGE (10%). Gels were dried and proteins visualized via Phosphorimaging (Fuji, Japan).

Diap1 in Cos-7 cells = target: T2, Diap1 in Cos-7 cells (Drosophila melanogaster, UniProt Q24306); test: Cellular stability of DIAP1 (cycloheximide chase, Western blot); format: cell-based; settings: Cos-7 cells co-transfected with Diap1-Flag and RPR-HA, cycloheximide 30 minute chase
T2 construct: expressed in transfected cells; host or cells: Cos-7
T2 sequence (Q24306 1-438): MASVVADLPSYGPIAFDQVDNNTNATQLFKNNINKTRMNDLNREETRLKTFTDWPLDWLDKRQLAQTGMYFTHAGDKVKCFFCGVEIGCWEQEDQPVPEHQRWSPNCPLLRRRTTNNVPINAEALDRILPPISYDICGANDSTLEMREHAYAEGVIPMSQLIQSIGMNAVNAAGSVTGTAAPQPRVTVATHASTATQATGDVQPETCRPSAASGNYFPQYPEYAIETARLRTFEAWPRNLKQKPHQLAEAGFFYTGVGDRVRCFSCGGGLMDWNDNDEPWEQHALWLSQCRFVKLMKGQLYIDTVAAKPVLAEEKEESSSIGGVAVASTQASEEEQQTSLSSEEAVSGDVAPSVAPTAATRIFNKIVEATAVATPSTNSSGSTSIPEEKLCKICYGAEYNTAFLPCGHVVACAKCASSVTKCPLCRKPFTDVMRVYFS
Protocol: Cellular Stability of DIAP1
Cos-7 cells were transfected with 1 μg of wild-type (wt) Diap1-Flag-pcDNA3 along with 1 μg RPR-HA-pcDNA3 or 1 μg pcDNA3 vector (to maintain an equal amount of DNA in all transfections). Transfections were carried out by using FuGene™. 30 h aer transfection, 100 μg cycloheximide (Sigma) was added to each 60 mm dish for 0, 30, 60 min. Cells were harvested and lysed. Equal amount of protein were resolved via SDS-PAGE (10%) and blotted onto riocellulose paper. Diap1 was monitored by Western blot analysis using anti-Diap1 antibody and ECL.
In order to determine the effect of the IAP inhibitor (IAPi), Reaper's expression on IAP protein stability, a pulse-chase experiment was conducted using Cos-7 cells co-transfected with Diap1-Flag-pcDNA3 and RPR-HA-pcDNA3 or pcDNA3 vector alone treated with cycloheximide for 0, 30 or 60 minutes, followed by cell lysis, and immunoblot analysis.

DIAP1 [6] = test: Ectopic expression (Gal4/UAS) in Drosophila imaginal discs and embryos, anti-DIAP1 labeling; format: in vivo
Excerpt: Mitotic recombination was induced in the developing eye imaginal discs using the Flp-FRT method36 and ey-flipase. Gal4/UAS system was used for ectopic expression.
GST-DIAP16 was expressed in BL21 (pLysS) bacteria, and was gel purified before immunizing rabbits (Cocalico Biologicals). diap1(WT)-pET14b was used to express His-DIAP1 in BL21(pLysS) and was purified according to the manufacturer's protocol (Novagen) and immobilized on nitrocellulose paper to affinity purify anti-DIAP1 antisera Rabbit anti-β-galactosidase antibody (Cappel, ICN), mouse-anti-β-gatosdase antibody (Sigma), monoclonal anti-Engrailed antibody (Developmental Studies Hybridoma Bank), Rabbit CM1 antibody24 and mouse anti-HA antibody (Babco) were used to stain embryos and imaginal discs under standard conditions. For western blots, 6-18 h hour embryos were homogenized in the lysis buffer (20 mM Tris pH 7.5, 100 mM NaCl, 1% NP-40, 2 mM DTT) and the cell debns was spun down. The supernatant was run on 15% SDS-PAGE gels, transferred to nitrocellulose sheets and probed with Rabbit anti-DIAP1 antibody. Western blot was detected with ECL (Amersham).
IAP degradation in thymocytes is a regulated process, wherein glucocorticoids can trigger IAP degradation by unknown mechanisms. To determine whether DIAP1 degradation is also regulated in Drosophila, we co-expressed the cell death promoting protein RPR and the baculovirus p35 caspase inhibitor^21 in the wing imaginal disc posterior compartment using the engrailed (en)-Gal4 driner^22. Expression of p35 prevented RPR-expressing cells from dying, and the resulting cell population not undergoing apoptosis enabled us to observe cellular changes downstream of RPR. Whereas animals expressing RPR alone died as embryos, those compressing RPR and p35 survived to adulthood with wings indistinguishable from wild type (FIG. 2a). […] The wing imaginal discs were also labeled with CM1 antibody, which detects activated caspase-3 in humans and cross-reacts with activated caspases in Drosophila^23,24. In the control anterior compartment, sporadic apoptotic cells were intensely labeled with CM1.
Thus, the effect of the RING finger mutations on RPR-dependent DIAP1 degradation in embryos was determined. The protein distribution of DIAP1 was analyzed in embryos that express RPR under the prd-Gal4 driver (FIG. 3a, c). In wild type embryos, DIAP1 is homogenously distributed (FIG. 3b).

T1 sequence (P98170 whole entry): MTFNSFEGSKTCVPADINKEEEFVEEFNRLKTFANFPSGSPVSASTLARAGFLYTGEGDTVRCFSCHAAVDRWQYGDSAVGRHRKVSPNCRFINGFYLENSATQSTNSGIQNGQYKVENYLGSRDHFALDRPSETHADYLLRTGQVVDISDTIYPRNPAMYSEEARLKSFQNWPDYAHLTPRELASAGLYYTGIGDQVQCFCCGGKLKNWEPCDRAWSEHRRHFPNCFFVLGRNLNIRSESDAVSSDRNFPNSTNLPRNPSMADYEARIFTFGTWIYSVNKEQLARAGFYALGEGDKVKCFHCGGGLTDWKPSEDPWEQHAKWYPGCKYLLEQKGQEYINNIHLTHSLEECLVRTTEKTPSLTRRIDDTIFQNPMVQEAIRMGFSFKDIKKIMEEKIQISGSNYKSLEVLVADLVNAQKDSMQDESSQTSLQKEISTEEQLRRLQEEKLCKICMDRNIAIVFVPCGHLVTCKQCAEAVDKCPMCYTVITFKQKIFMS

For “AVPFYLPE QWRFLATVVL (AVPFYLPEQWRFLATVVL; Drosophila melanogaster) [Peptide H9-W]”, the “XIAP self-conjugation in vitro” value (XIAP [1]) was “greatest effect”.

For “His-UBCD1 (Drosophila ubiquitin conjugating enzyme UbcD1, purified from E. coli)”, the “in vitro ubiquitination of 35S-DIAP1 (E1, His-UBCD1, ubiquitin; SDS-PAGE, Phosphorimaging)” value [2] was “Wild-type DIAP1 (lane 4) showed marked ubiquitination” and the “in vitro ubiquitination of 35S-DIAP1 (E1, His-UBCD1, ubiquitin; SDS-PAGE, Phosphorimaging)” value [3] was “the His-DIAP1^21-4S mutant (RING domain mutant) did not (lane 7), in the presence of ubcD1”.

With “AVAPYIPDQATLLR QWRFLATVVL (AVAFYIPDQATLLRQWRFLATVVL; Drosophila melanogaster) [Peptide R15W]” the “XIAP self-conjugation in vitro” value (XIAP [1]) was “greatest effect”.

B1: Reaper: Drosophila IAP inhibitor (IAPi) protein REAPER, wild type; used as protein or expressed from a transgene/plasmid (protein)
chain: MAVAFYIPDQATLLREAEQKEQQILRLRESQWRFLATVVLETLRQYTSCHPKTGRKSGKYRKPSQ
In the case of B1, the “IAP (DIAP1) self-conjugation / auto-ubiquitination in vitro” value (DIAP1 [4]) is reported as “resulted in auto-ubiquitination”, the “auto-ubiquitination of human XIAP” value (XIAP [5]) is reported as “strongly stimulated” and the “IAP (Diap1) protein level / half-life” value (Diap1 in Cos-7 cells) is reported as “dramatic reduction in detectable IAP protein”. The “DIAP1 downregulation in embryos” value (DIAP1 [6]; RING domain mutant background, diap1 33-1S and diap1 22-8S alleles) was “no longer able to downregalate DIAP1”, the “DIAP1 protein levels in embryos” value (DIAP1 [6]; expression under prd-Gal4 driver, wild type diap1) was “DIAP1 protein levels decrease” and the diap1-lacZ expression (DIAP1 [6]; wing imaginal disc posterior compartment, co-expressed with p35 under en-Gal4) was “increased”. For the same molecule, the anti-DIAP1 labeling (DIAP1 [6]; wing imaginal disc posterior compartment, co-expressed with p35 under en-Gal4, compared to anterior compartment) was “reduced anti-DIAP1 labeling”.
